T1: WT
T1 construct: also called T cells of wild-type (WT) mice; mouse TNFR2 on the cell membrane
T1 chain: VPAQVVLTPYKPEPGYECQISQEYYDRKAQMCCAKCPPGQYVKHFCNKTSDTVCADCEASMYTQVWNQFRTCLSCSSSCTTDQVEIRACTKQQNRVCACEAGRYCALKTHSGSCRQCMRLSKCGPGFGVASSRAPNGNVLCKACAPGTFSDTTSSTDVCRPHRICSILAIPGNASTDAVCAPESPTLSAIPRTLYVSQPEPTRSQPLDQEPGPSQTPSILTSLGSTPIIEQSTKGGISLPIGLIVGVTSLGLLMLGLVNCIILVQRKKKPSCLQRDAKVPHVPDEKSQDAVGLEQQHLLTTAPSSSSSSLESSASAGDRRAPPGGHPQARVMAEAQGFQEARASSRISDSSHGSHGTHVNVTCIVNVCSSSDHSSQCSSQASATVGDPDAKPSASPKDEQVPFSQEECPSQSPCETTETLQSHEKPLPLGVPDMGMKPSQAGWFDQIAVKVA

T2: human TNFR2 on the cell membrane (human, UniProt P20333 23-461)
T2 construct: whole, on cells; One molecule for all cell formats; also called TNFR2-CHO cells; CHO-TNFR2
T2 sequence (looked up): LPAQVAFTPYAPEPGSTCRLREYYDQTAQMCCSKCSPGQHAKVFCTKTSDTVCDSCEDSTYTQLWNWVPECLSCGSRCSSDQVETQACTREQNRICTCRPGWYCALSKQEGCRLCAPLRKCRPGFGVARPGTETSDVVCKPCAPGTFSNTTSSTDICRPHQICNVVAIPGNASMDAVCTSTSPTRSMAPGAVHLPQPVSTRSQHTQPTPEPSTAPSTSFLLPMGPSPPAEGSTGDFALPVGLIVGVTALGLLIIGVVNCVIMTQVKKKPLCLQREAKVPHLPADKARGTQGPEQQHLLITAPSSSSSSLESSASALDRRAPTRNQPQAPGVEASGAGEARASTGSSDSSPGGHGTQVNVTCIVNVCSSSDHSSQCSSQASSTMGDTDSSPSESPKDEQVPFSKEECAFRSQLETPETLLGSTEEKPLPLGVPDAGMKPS

T3: TNFR2-His (Sino Biological, 10417-H08H, NP_001057.1 Met1-Asp257, with multi-histidine tag expressed on … (human, UniProt P20333 23-257))
T3 construct: range 1-257; Bought protein; also called recombinant human TNFR2 protein; TNFR2-His antigen; not shown: C-terminal multi-histidine tag
T3 sequence (looked up): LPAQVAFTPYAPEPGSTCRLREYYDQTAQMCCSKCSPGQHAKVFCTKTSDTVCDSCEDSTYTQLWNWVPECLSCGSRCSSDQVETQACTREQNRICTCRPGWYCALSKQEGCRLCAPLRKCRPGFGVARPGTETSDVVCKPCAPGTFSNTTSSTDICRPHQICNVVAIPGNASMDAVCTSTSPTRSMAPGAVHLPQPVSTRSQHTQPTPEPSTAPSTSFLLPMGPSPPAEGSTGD


Assays:
[1] = target: T1, WT; experiment: flow cytometry on ConA-stimulated spleen cells of WT mice, mCD3+ T cells
Procedure: (§1) The cells were stained again with Cy-3 anti-human IgG and FITC anti-mCD3 (BD, 555274) after washing, under the same incubation conditions. After washing, the detection was performed.

[2] = target: T2, human TNFR2 on the cell membrane; experiment: flow cytometry on human PBMC, CD3+ T cells
Procedure: Purified anti-human TNFR2 human-mouse chimeric monoclonal antibodies were co-cultured with PBMC cells (Oricells) and stained. The binding of the antibody was analyzed by flow cytometry. The specific steps are as follows: PBMC cells (Oricells) were counted, centrifuged, resuspended, then added to a 96-deep well plate, and the supernatant was discarded. Diluted anti-TNFR2 monoclonal antibodies were added.

[3] = target: T2, human TNFR2 on the cell membrane; experiment: flow cytometry on Jurkat-TNFR2 cells
Procedure: (§2) Purified human-mouse monoclonal antibodies against TNFR2 were co-cultured with TNFR2 positive Jurkat cells (Jurkat cells were transfected with pcDNA3.4-TNFR2 plasmid using conventional methods, and after screening, stable and highly expressed TNFR2 Jurkat cell lines were obtained) and stained. The antibody binding intensity was analyzed by flow cytometry. The specific steps are as follows: Jurkat-TNFR2 was counted, centrifuged, resuspended, then added to a 96-deep well plate, and the supernatant was discarded. The anti-TNFR2 antibody was gradient diluted, and added to the 96-deep well plate, After incubation and wash, the secondary antibody FITC-anti-human IgG (Abcam: 6854) was added, and the samples were detected using Beckman CytoFLEX.

[4] = target: T2, human TNFR2 on the cell membrane; experiment: flow cytometry, Jurkat-TNFR2 cells
Procedure: as §2

[5] = target: T2, human TNFR2 on the cell membrane; experiment: flow cytometry on ConA-stimulated spleen cells of hTNFR2-KI mice, mCD3+ T cells
Procedure: as §1

[6] = target: T3, TNFR2-His (Sino Biological, 10417-H08H, …); experiment: ELISA, plate coated with TNFR2-His
Procedure: To determine whether the human-mouse chimeric TNFR2 monoclonal antibody of the present invention can bind to recombinant human TNFR2 protein, in vitro ELISA test was conducted. Similar to the method described above, The plate was coated with TNFR2-His (Sino Biological, 10417-H08H, Assessment #NP_001057.1.Met1-Asp257, with multi-histidine tag expressed on C-terminus) antigens, and blocked with BSA, then added with gradient diluted human-mouse chimeric TNFR2 monoclonal antibodies for incubation. Then, secondary antibody Ap-anit-human IgG Fc (JacksonImmuno Research, 109-055-098) was added for incubation After TMB development, ELISA reading was performed.

[7] = target: T3, TNFR2-His (Sino Biological, 10417-H08H, …); experiment: BLI, antibody captured on AHC probe, TNFR2 in solution
Procedure: The GATOR (ProbeLife) detection instrument and AHC (Pall, 185064), Human antibody Capture probe were used to detect the dissociation constant (Kd) of human-mouse chimeric TNFR2 monoclonal antibody.
The human-mouse chimeric TNFR2 monoclonal antibodies were diluted to 50 nM in binding buffer (Q buffer [PBS (10 mM PH7.4)+0.02% Tween 20+0.2% BSA). The recombinant human TNFR2 protein was diluted in Q buffer with a 2-fold gradient starting from the highest concentration of 100 nM. The kinetic association assay was conducted by placing the antibody capture sensor in the continuously diluted antigen solutions mentioned above. The Octet Data Acquisition software was pened and the New Kinetics Experiment-Basic Kinetics mode was selected.

Row | Binder | binding result [1] | percent of cells in the upper right quadrant (Q2-UR, mCD3+ and anti-hIgG+) [1] [%] | percent of cells in the upper right quadrant (Q1-UR, CD3+ and anti-human IgG Fc+) [2] [%] | EC50 [3] [µg/mL] | EC50 [4] [µg/mL] | percent of cells in the upper right quadrant (Q2-UR, mCD3+ and anti-hIgG+) [5] [%] | EC50 [6] [µg/mL] | Kd [7] [nM] | koff [7] [s⁻¹] | kon [7] [M⁻¹ s⁻¹]
1 | human-mouse chimeric TNFR2 monoclonal antibody 12E12-hFc (antibody, V domains shown, Mouse V regions of clone 12E12 with human constant regions; also called human-mouse chimeric 12E12 antibody) VH: EVQLQQSGAELVKPGASVKLSCTVSGFNIKDFYIHWVKQRPEQGLEWIGRVDPEDGNTEYAPNFQDRATMTTDTSSNTAYLQLSSLTSVDTAVYYCSTWDGFSYFDYWGLGTTLTVSS VL: QAVVTQESALTTSPGETVTLTCRSSTGPVTTNNYANWVQEKPDHLFTGLIGGTNDRAPGVPARFSGSLIGDKTALTITGTQTEDEAVYFCALWYRNHWVFGGGTKLTVL | no binding | 0.83 | 45.6 | 0.0123 | 0.012 | 46.2 | 0.0396 | 3.9 | 0.00304 | 780000
2 | human-mouse chimeric TNFR2 monoclonal antibody 27F6-hFc (antibody, V domains shown, Mouse V regions of clone 27F6 with human constant regions) VH: EVQLQQSGTVLARPGASVKMSCKTSGYTFTSYWMHWVKQRPGQGLEWIGTIYPGNSDTSYNQKFKGKAKLTAVTSASTAYMELNSLTNEDSAVFYCTRENLLLRSYFFDYWGQGTTLTVSS VL: DIVMTQSPASLAVSLGQRATISCKASQSVDYDGDSYLNWYQQKPGQPPKLLIYAASNLPSGIPARFSGSGSGTDFTLNIHPVEEEDAATYYCQQSNEDPRTFGGGTKLEIK | no binding | 1.04 | 42.3 | 0.0357 | 0.036 | 36 | 0.0415 | 9.38 | 0.00761 | 811000

— US20240392024A1 (SHANGHAI CELGEN BIO PHARMACEUTICAL, published 2024)
